Data from the supplement of paper PMC7877785.
± gives the uncertainty stated by the source.

Assay: self-splicing fitness, log relative to wild type (ln ratio); higher = more splicing; Tetrahymena group I intron in knt gene, E. coli kanamycin selection, DiMSum; sequences stand for … in CUCUCU…GGAGGGAAAAGUUAUCAGGCAUGCACCUGGUAGCUAGUCUUUAAACCAAUAGAUUGCAUCGGUUUAAAAGGCAAGACCGUCAAAUUGCGGGAAAGGGGUCAACAGCCGUUCAGUACCAAGUCUCAGGGGAAACUUUGAGAUGGCCUUGCAAAGGGUAUGGUAAUAAGCUGACGGACAUGGUCCUAACCACGCAGCCAAGUCCUAAGUCAACAGAUCUUCUGUUGAUAUGGAUGCAGUUCACAGACUAAAUGUCGGUCGGGGAAGAUGUAUUCUUCUCAUAAGAUAUAGUCGGACCUCUCCUUAAUGGGAGCUAGCGGAUGAAGUGAUGCAACACUGGAGCCGCUGGGAACUAAUUUGUAUGCGAAAGUAUAUUGAUUAGUUUUGGAGUACUCGUGGUCG
How it was run: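 Pooled colonies went to amplicon sequencing on an Illumina HiSeq 2500 after six replicate transformations. The plates were LB agar with 100 μg/mL carbenicillin, 50 μM IPTG and 0.2% rhamnose, with or without 25 μg/mL kanamycin, incubated overnight at 37°C or 30°C. The E. coli BL21(DE3) library had all eight P1ex-region intron nucleotides randomised, the intron placed in the knt kanamycin-resistance gene on pET-22b(+). DiMSum fitness is the error-weighted combination of replicate fold changes, kanamycin against none, normalised to wild type.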

Sequence	self-splicing fitness (ln) (30 °C)	self-splicing fitness (ln) (37 °C)
UCACAGCAAUAUUACGUGUA	-2.2 ± 0.089	-1.09 ± 0.088
UCAGAGCAAUAUUACGACAA		-2.96 ± 0.49
UCAGAGCAAUAUUACGACUC	-2.63 ± 0.22	-2.31 ± 0.26
UCAGAGCAAUAUUACGAUCA	-3.07 ± 0.35	-2.6 ± 0.31
UCAGAGCAAUAUUACGCAGG		0.137 ± 0.42
UCAGAGCAAUAUUACGCCUG	-3.63 ± 0.3	
UCAGAGCAAUAUUACGCGUG	-2.31 ± 0.16	-2.05 ± 0.15
UCAGAGCAAUAUUACGCUUG	-2.27 ± 0.14	-0.868 ± 0.12
UCAGAGCAAUAUUACGGAGC	-3.49 ± 0.36	-1.44 ± 0.36
UCAGAGCAAUAUUACGGAGG	-3.4 ± 0.27	-2.33 ± 0.34
UCAGAGCAAUAUUACGGCAC		-2.09 ± 0.33
UCAGAGCAAUAUUACGGGAG	-2.82 ± 0.21	-2.14 ± 0.34
UCAGAGCAAUAUUACGGGUA	-3.47 ± 0.27	-2.64 ± 0.31
UCAGAGCAAUAUUACGGUCU	-1.95 ± 0.2	-2.43 ± 0.39
UCAGAGCAAUAUUACGUGCA	-2.3 ± 0.16	-2.1 ± 0.18
UCAUAGCAAUAUUACGAAAA	-2.62 ± 0.48	
UCAUAGCAAUAUUACGAUAG	-3.22 ± 0.19	-1.79 ± 0.13
UCAUAGCAAUAUUACGAUGA	-2.65 ± 0.18	-0.815 ± 0.11
UCAUAGCAAUAUUACGCACG	-2.05 ± 0.11	-0.462 ± 0.13
UCAUAGCAAUAUUACGCACU	-3.19 ± 0.25	-3.18 ± 0.32
UCAUAGCAAUAUUACGCAUC	-3.59 ± 0.3	-3.1 ± 0.33
UCAUAGCAAUAUUACGCAUG	-4.52 ± 0.27	-2.77 ± 0.23

Sequence	self-splicing fitness (ln) (30 °C)	self-splicing fitness (ln) (37 °C)
UCAUAGCAAUAUUACGCCUA	-2.62 ± 0.34	-1.85 ± 0.27
UCAUAGCAAUAUUACGCUGA	-2.32 ± 0.26	-1.85 ± 0.28
UCAUAGCAAUAUUACGGAGC	-2.3 ± 0.29	-3.14 ± 0.4
UCAUAGCAAUAUUACGGAUA	-1.51 ± 0.23	-2.59 ± 0.33
UCAUAGCAAUAUUACGGAUU	-3.52 ± 0.12	-3.06 ± 0.16
UCAUAGCAAUAUUACGGCAA	-2.25 ± 0.13	-1.14 ± 0.1
UCAUAGCAAUAUUACGGUGC	-2.88 ± 0.21	-3.08 ± 0.26
UCAUAGCAAUAUUACGUAAA	-2.76 ± 0.19	-1.99 ± 0.21
UCAUAGCAAUAUUACGUAUG	-3.28 ± 0.16	-2.09 ± 0.11
UCAUAGCAAUAUUACGUGAG	-1.1 ± 0.081	-0.39 ± 0.11
UCAUAGCAAUAUUACGUGUG	-1.8 ± 0.068	-1.84 ± 0.075
UCAUAGCAAUAUUACGUUAU	-3.05 ± 0.14	-2.21 ± 0.16
UCAUAGCAAUAUUACGUUCA	-1.73 ± 0.1	-1.57 ± 0.1
UCAUAGCAAUAUUACGUUCC		-1.99 ± 0.29
UCAUAGCAAUAUUACGUUCG	-1.03 ± 0.098	-0.686 ± 0.1
UCAUAGCAAUAUUACGUUGG	-4.13 ± 0.46	-1.05 ± 0.24
UCCAAGCAAUAUUACGAAGC	-2.87 ± 0.25	-1.93 ± 0.21
UCCAAGCAAUAUUACGACAA	-2.14 ± 0.13	-1.47 ± 0.1
UCCAAGCAAUAUUACGACUA	-1.2 ± 0.12	0.12 ± 0.1
UCCAAGCAAUAUUACGAGCG	-1.96 ± 0.081	-0.978 ± 0.099
UCCAAGCAAUAUUACGCAAA	-2.18 ± 0.24	-0.843 ± 0.17
UCCAAGCAAUAUUACGCAGU	-2.03 ± 0.082	-0.856 ± 0.093
